These are literature values, as cited in paper PMC10368991.

For orientation: Kd means a measure of binding affinity in units of concentration.

The data set has as its target LolB (Escherichia coli) (UniProt P61320).

Sequence of LolB (Escherichia coli) (P61320 22-207): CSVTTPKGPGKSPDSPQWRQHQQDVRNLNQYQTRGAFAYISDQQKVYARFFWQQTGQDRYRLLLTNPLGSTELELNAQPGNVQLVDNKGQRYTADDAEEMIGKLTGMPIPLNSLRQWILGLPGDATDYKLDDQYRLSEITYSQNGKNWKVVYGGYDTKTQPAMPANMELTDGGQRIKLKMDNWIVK
Sequence of LolA (P61316 22-203): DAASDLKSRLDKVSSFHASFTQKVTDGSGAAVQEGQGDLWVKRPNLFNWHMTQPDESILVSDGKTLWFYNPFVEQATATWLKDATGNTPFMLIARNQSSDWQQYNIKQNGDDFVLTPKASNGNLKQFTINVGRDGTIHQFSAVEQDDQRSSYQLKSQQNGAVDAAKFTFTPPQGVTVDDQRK

For LolA (from UniProt P61316), the Kd was 31.5 µM.
